The text below walks through data of US20220362145A1, “THERAPEUTIC HYDROGEL COMPOSITIONS” (THE UNIVERSITY OF BIRMINGHAM, priority 2018, published 2022).

Series [1] concerns the target T1, collagen type I (rat tail) (Rattus norvegicus, UniProt P02454+P02466).
T1 construct: collagen type I (rat tail; Corning, UK); purchased Corning, UK; host or cells: rat tail (tissue-derived)
The series is described as follows: Collagen fibrillogenesis turbidity assay. Type of series: biochemical. The procedure:
Collagen fibrillogenesis: For the dose response curves, 75 µl of PBS was added to each well of a 96 well plate kept on ice. Varying hrDecorin doses were prepared by adding 400 μg/ml of hrDecorin to the first well and subsequently serial diluting (2-fold dilution) across the plate. Following dilution, a further 150 μl of PBS buffer was added to each well. Then, 75 μl of collagen type I (rat tail; Corning, UK) (800 μg/ml) was added to each well and incubated for 2 hours at 37° C. Subsequent absorbance readings were taken using a 405 nm plate reader. Each assay consisted of duplicate blank controls, and triplicate standard dilutions followed by triplicate sample dilutions. Kinetics of fibril formation were determined using a similar setup as the dose response, without serial dilution; incubating the samples within the plate reader, and taking data points every 2 minutes.
• Prepare diluent and reaction buffers by mixing sodium phosphate and sodium chloride and adjusting the pH to 7.4. • Add sample (Gellan fluid gel +Galacorin™ Galacorin only and Gellan only) to a 96 well plate and serial dilute using diluent buffer across the rows of the plate. • On ice, prepare collagen by mixing with cold water to a concentration of 0.8 mg/ml. • Add collagen to all wells. • Add reaction buffer to all wells and mix. • Incubate at 37° C. for 2 hours. • Read using a plate reader at 405 nm

The subject of another series is fibrin gel. The series is described as follows: Matrix breakdown assay (fibrin gel). Format: biochemical. As to conditions: trans-well above fibrin gel (8.5 mg/ml), 60° C. The procedure:
[…] • Add 0.9 ml of gel to an Eppendorf. • To each gel add 0.1 ml of active in PBS. • Mix well using a vortex mixer. • Refrigerate for 24 hours before testing. • 0.5 ml of fibrin gel (8.5 mg/ml) was formed in the wells of a 24 well plate. • 0.5 ml of PBS was added to each well. • 0.1 ml of gel with active was added to a trans-well insert and placed above the fibrin gel. • Samples were incubated at 60° C. to activate the proteinase K. • Images were taken at various timepoints and compared to the control fibrin gel (pbs only) and fibrin gel with proteinase k added without a fluid gel carrier.

T1 sequence (P02454 152-1207 limits assumed): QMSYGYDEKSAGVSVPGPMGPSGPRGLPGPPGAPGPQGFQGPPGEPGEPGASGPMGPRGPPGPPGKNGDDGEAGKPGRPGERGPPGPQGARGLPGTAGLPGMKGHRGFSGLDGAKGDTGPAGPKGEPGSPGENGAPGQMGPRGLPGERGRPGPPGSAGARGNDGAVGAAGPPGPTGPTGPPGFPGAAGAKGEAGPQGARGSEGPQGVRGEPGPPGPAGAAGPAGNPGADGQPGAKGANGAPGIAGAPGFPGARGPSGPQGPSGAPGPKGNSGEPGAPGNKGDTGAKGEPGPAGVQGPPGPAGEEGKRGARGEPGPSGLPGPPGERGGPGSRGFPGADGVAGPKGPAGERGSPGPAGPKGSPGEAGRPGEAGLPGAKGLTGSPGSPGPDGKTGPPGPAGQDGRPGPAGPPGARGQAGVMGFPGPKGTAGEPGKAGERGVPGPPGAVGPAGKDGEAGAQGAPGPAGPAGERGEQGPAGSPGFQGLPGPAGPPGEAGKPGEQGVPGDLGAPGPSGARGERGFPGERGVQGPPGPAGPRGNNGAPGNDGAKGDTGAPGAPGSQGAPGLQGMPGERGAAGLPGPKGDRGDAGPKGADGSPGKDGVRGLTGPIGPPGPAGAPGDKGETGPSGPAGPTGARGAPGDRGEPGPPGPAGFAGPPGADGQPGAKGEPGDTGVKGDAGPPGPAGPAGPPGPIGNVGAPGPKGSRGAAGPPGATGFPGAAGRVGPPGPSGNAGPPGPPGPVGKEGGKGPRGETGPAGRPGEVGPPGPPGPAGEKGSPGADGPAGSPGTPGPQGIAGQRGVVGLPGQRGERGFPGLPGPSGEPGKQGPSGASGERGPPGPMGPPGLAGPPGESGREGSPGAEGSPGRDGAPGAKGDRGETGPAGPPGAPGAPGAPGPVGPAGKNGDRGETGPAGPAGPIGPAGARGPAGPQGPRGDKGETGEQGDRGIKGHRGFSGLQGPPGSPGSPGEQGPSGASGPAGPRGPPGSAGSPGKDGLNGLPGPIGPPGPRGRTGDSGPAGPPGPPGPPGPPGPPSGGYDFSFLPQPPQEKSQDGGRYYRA
T1 sequence (P02466 86-1125 limits assumed): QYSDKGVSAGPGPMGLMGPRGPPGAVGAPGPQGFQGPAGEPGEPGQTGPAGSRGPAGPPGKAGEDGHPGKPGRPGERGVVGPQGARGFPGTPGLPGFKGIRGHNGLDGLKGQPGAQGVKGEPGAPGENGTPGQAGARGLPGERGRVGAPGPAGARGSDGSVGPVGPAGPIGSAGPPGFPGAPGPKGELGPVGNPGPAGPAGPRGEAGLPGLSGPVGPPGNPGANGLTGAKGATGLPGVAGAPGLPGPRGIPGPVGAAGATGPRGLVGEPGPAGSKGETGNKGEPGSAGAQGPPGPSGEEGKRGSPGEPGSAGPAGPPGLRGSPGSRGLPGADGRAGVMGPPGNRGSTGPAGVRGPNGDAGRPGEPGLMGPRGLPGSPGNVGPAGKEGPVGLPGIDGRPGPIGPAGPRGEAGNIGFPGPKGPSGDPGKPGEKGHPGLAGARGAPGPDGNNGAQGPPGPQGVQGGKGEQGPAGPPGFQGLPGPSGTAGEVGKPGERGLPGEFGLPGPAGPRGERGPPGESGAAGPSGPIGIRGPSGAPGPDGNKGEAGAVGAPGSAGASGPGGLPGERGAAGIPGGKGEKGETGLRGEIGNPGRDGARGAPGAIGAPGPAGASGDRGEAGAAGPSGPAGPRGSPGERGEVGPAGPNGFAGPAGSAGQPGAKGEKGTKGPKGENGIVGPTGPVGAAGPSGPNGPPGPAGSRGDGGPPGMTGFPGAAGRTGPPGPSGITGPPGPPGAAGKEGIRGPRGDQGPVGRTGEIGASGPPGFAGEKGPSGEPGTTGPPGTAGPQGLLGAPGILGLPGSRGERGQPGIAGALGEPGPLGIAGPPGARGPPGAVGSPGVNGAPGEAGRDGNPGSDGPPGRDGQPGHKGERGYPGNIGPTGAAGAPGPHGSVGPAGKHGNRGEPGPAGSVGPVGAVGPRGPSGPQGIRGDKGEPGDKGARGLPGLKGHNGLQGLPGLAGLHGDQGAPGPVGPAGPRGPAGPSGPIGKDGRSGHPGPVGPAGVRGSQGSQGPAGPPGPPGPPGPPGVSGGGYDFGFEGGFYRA

B1: hrDecorin: human recombinant decorin sold by Catalent Pharma Solutions under the name Galacorin™ (protein, UniProt P07585 31-359, looked up)
Decorin: DEASGIGPEVPDDRDFEPSLGPVCPFRCQCHLRVVQCSDLGLDKVPKDLPPDTTLLDLQNNKITEIKDGDFKNLKNLHALILVNNKISKVSPGAFTPLVKLERLYLSKNQLKELPEKMPKTLQELRAHENEITKVRKVTFNGLNQMIVIELGTNPLKSSGIENGAFQGMKKLSYIRIADTNITSIPQGLPPSLTELHLDGNKISRVDAASLKGLNNLAKLGLSFNSISAVDNGSLANTPHLRELHLDNNKLTRVPGGLAEHKYIQVVYLHNNNISVVGSSDFCPPGHNTKKASYSGVSLFSNPVQYWEIQPSTFRCVYVRSAIQLGNYK
B1: in series [1] (turbidity at 405 nm vs collagen only control), the “effect on collagen fibrillogenesis (fibril formation)” value was “slowing the onset of fibrillogenesis”. Moreover, in series [1] (turbidity at 405 nm, 2 hours at 37° C.), the “critical concentration above which fibrillogenesis is inhibited” value turned out to be 0.5 μg/ml. Further, the “concentration at which minimum turbidity is achieved” value in series [1] (turbidity at 405 nm, no further reduction above) was over 10000 ng/mL.

B2: Proteinase K: extracellular matrix remodelling agent proteinase K (protein, UniProt P06873 106-384, looked up)
Proteinase K: AAQTNAPWGLARISSTSPGTSTYYYDESAGQGSCVYVIDTGIEASHPEFEGRAQMVKTYYYSSRDGNGHGTHCAGTVGSRTYGVAKKTQLFGVKVLDDNGSGQYSTIIAGMDFVASDKNNRNCPKGVVASLSLGGGYSSSVNSAAARLQSSGVMVAVAAGNNNADARNYSPASEPSVCTVGASDRYDRRSSFSNYGSVLDIFGPGTSILSTWIGGSTRSISGTSMATPHVAGLAAYLMTLGKTTAASACRYIADTANKGDLSNIPFGTVNLLAYNNYQA
In the case of B2, in the series with fibrin gel, the “breakdown of fibrin gel” value was “faster”.
